This is an account of results in patent US20050048070A1 (published 2005).

For assay [1], the target named is T1, bovine serum albumin (bovine, UniProt P02769 25-607).
T1 construct: Irrelevant antigen in the ELISA; also called BSA
Kind of assay: ELISA on coated antigens (data not shown). In general terms: ELISA stands for enzyme-linked immunosorbent assay.

For assay [2], the target named is T2, ovalbumin (UniProt P01012 2-386).
T2 construct: Irrelevant antigen in the ELISA
T2 sequence (looked up): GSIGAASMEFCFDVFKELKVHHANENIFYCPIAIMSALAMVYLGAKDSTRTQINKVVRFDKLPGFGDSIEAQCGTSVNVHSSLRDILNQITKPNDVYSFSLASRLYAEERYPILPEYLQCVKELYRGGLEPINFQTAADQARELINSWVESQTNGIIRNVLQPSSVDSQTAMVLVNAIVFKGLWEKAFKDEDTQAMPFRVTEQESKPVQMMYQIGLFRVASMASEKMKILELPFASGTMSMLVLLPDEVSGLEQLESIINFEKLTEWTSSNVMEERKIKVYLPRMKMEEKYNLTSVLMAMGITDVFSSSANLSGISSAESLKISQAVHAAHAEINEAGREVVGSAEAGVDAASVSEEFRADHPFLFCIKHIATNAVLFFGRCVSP
Kind of assay: ELISA on coated antigens (data not shown).

The target of assay [3] is T3, K8(1-85)/K18(1-187) heterotypic complex (human, UniProt P05787 2-86; P05783 2-188).
T3 construct: Heterotypic complex of two GST fusion proteins; not shown: glutathione S-transferase (GST) fusion partner, modified pGEX-2T vector
T3 chain 1: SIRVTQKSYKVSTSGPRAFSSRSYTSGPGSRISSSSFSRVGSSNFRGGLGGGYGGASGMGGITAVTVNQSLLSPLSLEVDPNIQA
T3 chain 2: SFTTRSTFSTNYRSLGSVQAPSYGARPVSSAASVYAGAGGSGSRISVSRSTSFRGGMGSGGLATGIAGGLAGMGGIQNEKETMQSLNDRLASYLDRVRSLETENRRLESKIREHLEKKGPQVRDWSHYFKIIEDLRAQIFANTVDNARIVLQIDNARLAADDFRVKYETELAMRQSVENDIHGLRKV
Nature of the assay: heterotypic association assay: blotted K8 proteins incubated with purified K18(1-187), then stained with COU-1.

For assay [4], the target named is T4, N-terminally truncated K8 protein where the first 22 amino acids were missing (from colon cancer tissue) (human, UniProt P05787 24-483).
T4 construct: also called K8 starting at residue 23
T4 chain: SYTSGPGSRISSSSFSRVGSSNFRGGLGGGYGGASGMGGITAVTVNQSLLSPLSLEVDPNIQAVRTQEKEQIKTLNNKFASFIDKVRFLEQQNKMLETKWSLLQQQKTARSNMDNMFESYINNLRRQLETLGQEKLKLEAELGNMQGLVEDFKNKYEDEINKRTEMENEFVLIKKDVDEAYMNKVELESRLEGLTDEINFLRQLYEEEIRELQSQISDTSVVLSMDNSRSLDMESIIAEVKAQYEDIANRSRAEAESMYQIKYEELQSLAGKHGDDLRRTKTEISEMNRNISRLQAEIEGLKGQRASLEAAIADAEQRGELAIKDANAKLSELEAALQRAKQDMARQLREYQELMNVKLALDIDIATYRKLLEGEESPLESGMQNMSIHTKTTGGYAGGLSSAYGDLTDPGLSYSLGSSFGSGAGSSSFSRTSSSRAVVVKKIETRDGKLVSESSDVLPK
Kind of assay: Western blot of cytokeratin bands from colon cancer tissue, bands identified by N-terminal sequencing (drawn table). (Immunoblotting shows a protein as a band on a membrane.)
Procedure: Protein bands were visualized with Coomassie Brilliant Blue. Separated proteins were also electroblotted onto polyvinylidene difluoride membranes (PVDF, Immobilon P, Millipore, Bedford, Mass.), at 100 Volts for 1 h in ice, using transfer buffer (10% (v/v) ethanol, 25 mM Tris, 200 mM glycine). Prior to transfer, the membrane was pre-soaked in ethanol for 2 min and the membranes and the gel were incubated in transfer buffer for 10 min. […] The membrane was washed in Western blot buffer and incubated with AP-conjugated rabbit-anti-goat IgG antibody (diluted 1/1000, Sigma), or AP-conjugated rabbit-anti-human IgM antibody (diluted 1/500, DAKO, Glostrup, Denmark) for 2 h at room temperature. Following 3 washes in PBS, the membrane was fixed with 0.2% glutaraldehyde in PBS for 15 min at room temperature and finally washed in PBS. Bound AP conjugate was visualized by NBT/BCIP (Bio-Rad, Hercules, Calif.). MCF7 or Colon 137 cells, resuspended in SDS sample buffer and sonicated, were used as antigen control. A low range protein marker (Bio-Rad) was used to indicate the molecular weight of the fragments.

T1 sequence (P02769 25-607 limits assumed): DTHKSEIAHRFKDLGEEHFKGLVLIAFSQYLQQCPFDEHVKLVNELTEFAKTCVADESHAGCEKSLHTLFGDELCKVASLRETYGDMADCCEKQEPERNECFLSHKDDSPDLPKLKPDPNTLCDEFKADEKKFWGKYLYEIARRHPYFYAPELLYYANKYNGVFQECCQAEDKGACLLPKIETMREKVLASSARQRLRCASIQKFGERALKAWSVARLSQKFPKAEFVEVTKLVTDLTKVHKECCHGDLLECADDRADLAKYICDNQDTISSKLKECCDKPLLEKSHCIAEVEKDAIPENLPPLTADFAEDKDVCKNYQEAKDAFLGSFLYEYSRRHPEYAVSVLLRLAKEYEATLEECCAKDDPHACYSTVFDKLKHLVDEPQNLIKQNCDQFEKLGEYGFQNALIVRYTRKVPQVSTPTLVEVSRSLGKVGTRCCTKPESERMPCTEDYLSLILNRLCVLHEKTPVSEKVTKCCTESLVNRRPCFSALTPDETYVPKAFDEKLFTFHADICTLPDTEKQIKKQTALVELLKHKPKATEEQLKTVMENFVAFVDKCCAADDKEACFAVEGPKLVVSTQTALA

B1: human monoclonal IgM antibody COU-1 (antibody, V domains shown)
VH: GAEVKKPGASVKVSCKASDYTFSSYYMHWVRQAPGQGLEWMGIINPSGGSTSYAQKFQGRVTMTRDTSTNTVYMELSSLRSEDTAVYYCARDQVVVAATLSNYGMDVWGQGTTVTVSS
VL: ELTQSPGTLSLSPGERATLSCRASQSVSSSYLAWYQQKPGQAPRLLIYDASNRATGIPARFSGSGSGTDFTLTISSLEPEDFAVYYCQQGTNWGIAFGQGTRLDIKR
notes: Human IgM with kappa light chain, secreted by hybridoma B9165 (ECACC 87040201), purified from culture supernatant; also called HMab COU-1; HuMab COU-1
Turning to B1, the binding result in assay [1] is given as “no binding”; in assay [2], “no binding”; in assay [3], “no binding (tested: 5 µg/ml COU-1 (P-0285))”; in assay [4], “no binding (tested: 5 µg/ml COU-1 (P-0279))”.
